According to FireProtDB (doi:10.1016/j.jmb.2005.07.042):
Several values for one entry are separate records, joined by “and”; a condition that tells them apart may be missing. Identical values can stand only once.

Conditions: Escherichia coli (strain K12), pH 7.4, Thermal, DSC, Pipes 50 mM, reversible: yes (80%), whole UniProt chain shown

B1: Guanylate kinase wild type, P60546 (protein)
chain: MAQGTLYIVSAPSGAGKSSLIQALLKTQPLYDTQVSVSHTTRQPRPGEVHGEHYFFVNHDEFKEMISRDAFLEHAEVFGNYYGTSREAIEQVLATGVDVFLDIDWQGAQQIRQKMPHARSIFILPPSKIELDRRLRGRGQDSEEVIAKRMAQAVAEMSHYAEYDYLIVNDDFDTALTDLKTIIRAERLRMSRQKQRHDALISKLLAD
unfolding enthalpy (calorimetric) (NaCl 250 mM, transition: 3): 36.8 kcal/mol and 70.3 kcal/mol | unfolding enthalpy (calorimetric) (transition: 3): 38.9 kcal/mol and 67.5 kcal/mol | unfolding enthalpy (calorimetric) (transition: 4): 27.3 kcal/mol and 47.8 kcal/mol and 30.8 kcal/mol
